Km, Vmax and Vmax/Km data for 1 substance are collected here from article PMC10199920, “Identification of a mycobacterial hydrazidase, an isoniazid-hydrolyzing enzyme” (Scientific Reports, 2023).

Assay type in all cases: biochemical, Mycolicibacterium smegmatis
Holding throughout (conditions): 50 mM sodium phosphate pH 7.0, 37 °C, 15 min

The test system of one series is NNC(=O)c1cccnc1. Nature of the series: colorimetric hydrazine formation (p-dimethylaminobenzaldehyde), Lineweaver-Burk. An excerpt:
(§1) colorimetric hydrazine formation (p-dimethylaminobenzaldehyde), Lineweaver-Burk on PzaA

Another series concerns NNC(=O)c1ccncc1. The description is as above.
Text: as §1

The test system of a further series is NC(=O)c1ccncc1. Nature of the series: colorimetric ammonia formation, Lineweaver-Burk. An excerpt: (§2) colorimetric ammonia formation, Lineweaver-Burk on PzaA
The next series has as its system NC(=O)c1cnccn1. Nature of the series: colorimetric ammonia formation, Lineweaver-Burk.
Text: as §2

For a further series, the system named is NC(=O)c1cccnc1. Nature of the series: colorimetric ammonia formation, Lineweaver-Burk.
Text: as §2

“PzaA (Mycolicibacterium smegmatis MC2 155)”: the Km was 1.26 (0.0475) mM in the series with NNC(=O)c1cccnc1; 1.20 (0.271) mM in the series on NNC(=O)c1ccncc1; 0.145 (0.0203) mM with NC(=O)c1ccncc1; 0.143 (0.0078) mM in the series with NC(=O)c1cnccn1; 0.0887 (0.0113) mM in the series with NC(=O)c1cccnc1. Moreover, the Vmax in the series on NNC(=O)c1cccnc1 came out at 23.7 µmol/min/mg; with NNC(=O)c1ccncc1, 1.51 µmol/min/mg; in the series with NC(=O)c1ccncc1, 6.48 µmol/min/mg; with NC(=O)c1cnccn1 it was 11.7 µmol/min/mg; in the series with NC(=O)c1cccnc1, 37.2 µmol/min/mg. The Vmax/Km was found to be 18800 µL/min/mg with NNC(=O)c1cccnc1; 1260 µL/min/mg in the series on NNC(=O)c1ccncc1; 44700 µL/min/mg with NC(=O)c1ccncc1; 81800 µL/min/mg with NC(=O)c1cnccn1; 419000 µL/min/mg in the series on NC(=O)c1cccnc1.
